The supplement of paper PMC10899765

What was measured:
Conditions in all cases: 20 nM; 72 h
MCF10A [1] = test: 5+ nucleoli phenotype percent effect (relative to siNT 0% and siKIF11 100%); higher = more cells with five or more nucleoli
Description: (§1)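 After 72 h, cells were fixed and stained with Hoechst and anti-fibrillarin, and nucleoli per nucleus were counted with CellProfiler. Values are plate-adjusted percent effect for the one-nucleolus and 5+ nucleoli phenotypes, normalised to siNT (0%) and to the positive controls siNOL11 or siKIF11 (100%), as the mean of biological triplicates. Percent viability is the nuclei count relative to siNT.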

MCF10A [2] = test: one-nucleolus phenotype percent effect (relative to siNT 0% and siNOL11 100%); higher = more cells with one nucleolus (ribosome biogenesis inhibition)
Description: as §1

MCF10A [3] = test: percent viability (nuclei count relative to siNT); higher = more viable cells
Description: as §1

| Sequence | 5+ nucleoli phenotype percent effect (MCF10A [1]) [%] | one-nucleolus phenotype percent effect (MCF10A [2]) [%] | percent viability (MCF10A [3]) [%] |
| --- | --- | --- | --- |
| AUAUGUAUAUGUGACUGCUACU [hsa-miR-3924] | -20.9 | -20 | 32 |
| AUAUUACCAUUAGCUCAUCUUU [hsa-miR-556-3p] | -10.1 | -7.76 | 46.5 |
| AUAUUAUUAGCCACUUCUGGAU [hsa-miR-4795-3p] | -25.8 | 3.49 | 27.9 |
| AUCAAAUAAGGACUAGUCUGCA [hsa-miR-3671] | 14.8 | -10.1 | 74.3 |
| AUCAACAGACAUUAAUUGGGCGC [hsa-miR-421] | -13.6 | 23.1 | 61.3 |
| AUCAAGGAUCUUAAACUUUGCC [hsa-miR-561-5p] | -9.66 | 5.64 | 38.8 |
| AUCACACAAAGGCAACUUUUGU [hsa-miR-377-3p] | -2.87 | -9.96 | 129 |
| AUCACAUUGCCAGGGAUUACC [hsa-miR-23b-3p] | -9.04 | 0.34 | 103 |
| AUCACAUUGCCAGGGAUUUCC [hsa-miR-23a-3p] | -6.74 | -9.26 | 126 |
| AUCACAUUGCCAGUGAUUACCC [hsa-miR-23c] | -6.12 | 2.08 | 93.5 |
| AUCAGGGCUUGUGGAAUGGGAAG [hsa-miR-3127-5p] | -23.4 | 49.5 | 18.4 |
| AUCAUACAAGGACAAUUUCUUU [hsa-miR-539-3p] | -9.08 | -9.28 | 39.4 |
| AUCAUAGAGGAAAAUCCACGU [hsa-miR-376a-3p] | 51.3 | -19.3 | 52.2 |
| AUCAUAGAGGAAAAUCCAUGUU [hsa-miR-376b-3p] | 52.2 | -20.4 | 144 |
| AUCAUAUGAACCAAACUCUAAU [hsa-miR-5007-3p] | 45.1 | -22.4 | 107 |
| AUCAUGAUGGGCUCCUCGGUGU [hsa-miR-433] | -11.3 | -2.79 | 63.2 |
| AUCAUGUAUGAUACUGCAAACA [hsa-miR-6516-3p] | -35 | 25.6 | 46.4 |
| AUCCAGUUCUCUGAGGGGGCU [hsa-miR-5195-3p] | 2.52 | 13.3 | 46.4 |
| AUCCCACCACUGCCACCAU [hsa-miR-1260b] | 18.9 | -10.3 | 30.7 |
| AUCCCACCUCUGCCACCA [hsa-miR-1260a] | 24.8 | -2.14 | 42.3 |
| AUCCCCAGAUACAAUGGACAA [hsa-miR-2355-5p] | -14.8 | 1.32 | 68.5 |
| AUCCCUUGCAGGGGCUGUUGGGU [hsa-miR-623] | 53.3 | -13.1 | 91.7 |
| AUCCGCGCUCUGACUCUCUGCC [hsa-miR-937-3p] | 8.26 | -5.97 | 78.1 |
| AUCCUAGUCACGGCACCA [hsa-miR-7975] | -29.1 | 12.9 | 43.7 |

| Sequence | 5+ nucleoli phenotype percent effect (MCF10A [1]) [%] | one-nucleolus phenotype percent effect (MCF10A [2]) [%] | percent viability (MCF10A [3]) [%] |
| --- | --- | --- | --- |
| AUCCUCUCUUCCCUCCUCCCAG [hsa-miR-7111-3p] | -40 | 3.35 | 47.3 |
| AUCCUCUUUCGUCCUUCCCACU [hsa-miR-6881-3p] | -36.4 | 22.7 | 49.2 |
| AUCCUUGCUAUCUGGGUGCUA [hsa-miR-502-5p] | -11.6 | 8.98 | 40.4 |
| AUCGCUGCGGUUGCGAGCGCUGU [hsa-miR-639] | 61.4 | -17.2 | 129 |
| AUCGCUUUACCAUUCAUGUU [hsa-miR-4790-5p] | -9.48 | 16.1 | 34.2 |
| AUCGGGAAUGUCGUGUCCGCCC [hsa-miR-425-3p] | -1.09 | -1.79 | 109 |
| AUCGGGCCCUCGGCGCCGG [hsa-miR-3181] | -23.1 | 8.67 | 31.6 |
| AUCGUGCAUCCCUUUAGAGUGU [hsa-miR-517a-3p] | -11.8 | 3.74 | 46.8 |
| AUCGUGCAUCCCUUUAGAGUGU [hsa-miR-517b-3p] | -20.3 | 14.6 | 35.2 |
| AUCGUGCAUCCUUUUAGAGUGU [hsa-miR-517c-3p] | -11.3 | 11.8 | 41.6 |
| AUCUAAAUGCAGCAUGCCAGUC [hsa-miR-4799-5p] | 15 | -0.603 | 59.9 |
| AUCUGACCUGAUGAAGGU [hsa-miR-4256] | 5.64 | 30.3 | 11.7 |
| AUCUGCCAGCUUCCACAGUGG [hsa-miR-4727-5p] | -25.7 | 17.9 | 42.4 |
| AUCUGCUCUCUUGUUCCCAG [hsa-miR-6828-3p] | 10.5 | 2.43 | 43.4 |
| AUCUGGAGGUAAGAAGCACUUU [hsa-miR-516b-5p] | 48.7 | -1.83 | 61.6 |
| AUCUGUAAGAGAAAGUAAAUGA [hsa-miR-3686] | 21.5 | -0.187 | 48.4 |
| AUCUGUCUCGAUUGUUUCCAG [hsa-miR-6888-3p] | 6.29 | 23.5 | 110 |
| AUGAAGCCUUCUCUGCCUUACG [hsa-miR-7843-3p] | -32.5 | 15.8 | 37.8 |
| AUGAAGUGCACUCAUGAUAUGU [hsa-miR-3616-5p] | -38.4 | 32.7 | 27.9 |
| AUGACCUAUGAAUUGACAGAC [hsa-miR-215] | -16.4 | 45.7 | 29.2 |
| AUGAGACUCAUGUAAAACAUCUU [hsa-miR-3672] | -24.8 | 34.3 | 52.6 |
| AUGAGCGACUGUGCCUGACC [hsa-miR-5708] | -33 | 21.4 | 47.3 |
| AUGAUCCAGGAACCUGCCUCU [hsa-miR-640] | -28.9 | 28.8 | 32.2 |
| AUGCACCUGGGCAAGGAUUCUG [hsa-miR-500a-3p] | -12.9 | -2.54 | 34.2 |
